# In article PMC5444726, “A CD44-specific peptide, RP-1, exhibits capacities of assisting diagnosis and predicting prognosis of gastric cancer” (Oncotarget, 2017):
# Peptide text beside a SMILES is read from it. * marks the point of attachment. FITC = O=C1OC2(c3ccc(O)cc3Oc3cc(O)ccc32)c2ccc(NC(=S)*)cc21
# Assays:
# nude mice = assay: In vivo toxicity in nude mice (body weight, H&E staining); settings: 1 mg/kg i.v., one week
# Procedure: All animal procedures were approved by the Ethics Committee of Xi’an Jiaotong University and conducted in accordance with the Helsinki Declaration (1975). Athymic nude mice (male, 4–5 weeks old, with a body weight of 20–25 g) were obtained from the Animal Experiment Center of Xi’an Jiaotong University, Xi’an, China. The SGC-7901 tumor xenografts were generated by subcutaneous injection of 5–8 × 10^6 SGC-7901 cells suspended in 200 μL culture medium into the left axilla of mice. The cells were allowed to grow for 2 weeks until tumor volume reached an estimate of 1 cm^3.
# Cell Counting Kit-8 (CCK-8, Beyotime, Shanghai, China) assay and animal experiments were performed to evaluate the in vitro and in vivo toxicity of RP-1 peptide, respectively. For CCK-8 assay, 5 × 10^3 MKN-28, SGC-7901, BGC-823 and GES-1 cells in 100 μL culture medium were incubated into each well of a 96-well plate 24 h before peptide was added. All cells were incubated with FITC-RP-1 0.064 to 200 μM. After incubation for 24 h, 48 h or 72 h, 10 μL CCK-8 reagent were added into each well and further incubated for 3 h. Then, the absorbance at 450 nm was measured with a microplate reader (Bio-Rad, Hercules, CA, USA). In animal experiments, FITC-RP-1 or PBS 1 mg/kg was intravenously injected via the tail vein. The body weight of nude mice was measured every day. […]
# MKN-28 cells = type: cell-based, human; settings: 200 µM
# [1] = system: human gastric epithelial cell line GES-1; type: cell-based; settings: 200 µM
# SGC-7901 cells [2] = assay: Binding affinity to gastric cancer cells (fluorescence saturation); set-up: species or system human; settings: FITC-labeled peptide, 0 to 2.5 μM at 0.25 μM intervals, serum-free RPMI 1640, ambient temperature, 15 min, microplate reader; least squares fit, R^2 = 0.98; read-out: equilibrium dissociation constant (Kd)
# Procedure: 5 × 10^5 SGC-7901 cells were inoculated into each well of a multi-well plate 24h before measurement. Both FITC- RP-1 and FITC-WYP peptide were serially diluted with RPMI 1640 culture medium containing no serum at concentrations ranged from 0 to 2.5 μM at 0.25 μM intervals, and incubated with SGC-7901 cells at ambient temperature for 15 min [40]. After washing twice with pre-cold PBS/0.2% Tween-20 solution, the unbound peptide was rinsed off, and cells were subsequently fixed in 4% paraformaldehyde at ambient temperature for 20 min. […] The equilibrium dissociation constant (Kd) was calculated using a least squares fit of the data with Origin 8.0 software (OriginLab, Massachusetts, USA). I was calculated using the Michaelis-Menten equation I = Imax([X])/(Kd+[X]), in which Imax was the maximum fluorescent intensity corresponding to peptide binding at saturation, which was calculated from the plots; I was the fluorescent intensity measured above; [X] was the concentration of total peptides and estimated to be the concentration of unbound peptide.
# SGC-7901 cells [3] = type: cell-based, human; settings: 200 µM
# BGC-823 cells = type: cell-based, human; settings: 200 µM
# SGC-7901 tumor tissue = assay: Fluorescence microscopy of frozen xenograft sections after injection; type: in vivo, athymic nude mice; settings: 3 h after i.v. injection of peptide
# Procedure: Once fluorescence signal reached its peak at the site of tumor, subcutaneous tumor tissues were harvested for further experiment. After shock-frozen with liquid nitrogen, tumor tissues were cut into 5 μm sections and fixed in 4% paraformaldehyde at ambient temperature for 30 min. The coverslips were mounted with glycerol–gelatin containing anti-fading buffer (Bioworld, Minnesota, USA). Finally, the fluorescence images of frozen sections were captured with a fluorescent microscope (Nikon-Eclipse, Tokyo, Japan)
# [4] = system: CD44 on MKN-28-CD44-ox cells; assay: Confocal immunofluorescence of peptide binding to CD44-overexpressing MKN-28 cells; type: cell-based, human; settings: 100 μM Alexa Fluor 594 labeled peptide, 20 min, fixed cells, confocal microscopy
# Procedure: Plasmids containing cDNA of CD44 protein were synthesized by GENECHEM, Shanghai, China. Using Pfu polymerase and two oligonucleotides ([…] and […]), the CD44 cDNA was cloned into Xhol and ECOR1 sites of GV146 (GENECHEM, Shanghai, China) by recombinant PCR. Then, CD44-negative MNK-28 cells were transfected with the plasmid with Lipofectamine 2000 reagent (Invitrogen, California, USA), and then the efficiency of CD44 expression in MKN-28 cells was tested. Finally, two cell lines were generated as following: MKN-28-con with no CD44 expression and MKN-28-CD44-ox with CD44 overexpression labeled with enhanced green fluorescent protein (EGFP).
# For the preparation of confocal laser microscopy, the transfected MNK-28 cancer cells were washed with phosphate buffer saline (PBS) three times, then fixed with 4% paraformaldehyde at ambient temperature for 30 min, and blocked with 5% BSA (w/v) in PBS at 37°C for 1 h. The blocked cells were sequentially incubated with 100 μM RP-1 or WYP labeled with Alexa Fluor 594 for 20 min, and counterstained with 4,6-diamidino-2-phenylindole (DAPI). […] For the evaluation of the correlation of fluorescent intensities between CD44-EGFP and RP-1-Fluor 594, a semi-quantitative analysis was performed with ImageJ 1.48v software (National Institutes of Health, Maryland, USA) by randomly selecting and observing 10 fields of vision. […]
Compound,toxicity in vivo (nude mice),cell viability (MKN-28 cells),cell viability [1] [%],Kd (SGC-7901 cells [2]) [nM],cell viability (SGC-7901 cells [3]) [%],cell viability (BGC-823 cells) [%],fluorescence on tumor cells in frozen sections (SGC-7901 tumor tissue),binding of peptide to CD44 on the cell membrane [4]
CC(C)C[C@H](NC(=O)[C@H](Cc1ccc(O)cc1)NC(=O)[C@H](CO)NC(=O)[C@H](Cc1c[nH]c2ccccc12)NC(=O)[C@@H]1CCCN1C(=O)[C@H](Cc1c[nH]cn1)NC(=O)[C@H](Cc1c[nH]c2ccccc12)NC(=S)Nc1ccc2c(c1)C(=O)OC21c2ccc(O)cc2Oc2cc(O)ccc21)C(=O)N[C@@H](Cc1c[nH]c2ccccc12)C(=O)N[C@H](C(=O)N[C@@H](CCC(N)=O)C(=O)N[C@@H](CCC(N)=O)C(=O)N[C@@H](C)C(=O)O)[C@@H](C)O [FITC-RP-1] ({FITC}-WHPWSYLWTQQA-OH; N-terminus and C-terminus assumed),low toxicity in vivo,more than 85%,> 91,135,> 86,> 84,–,–
"WYPLAHWQTSWQ [scrambled control peptide … consisting of the same amino acids as RP-1, reference compound]",–,–,–,–,–,–,No fluorescence signal was detected,No fluorescent signal was detected
